Experimental data published in patent CN107827981A (SHENZHEN GUOCHUANG NANOMETER ANTIBODY TECH CO LTD, dated 2018).

Target: T1, 重组PE免疫毒素 (recombinant Pseudomonas exotoxin A, partial sequence) (Pseudomonas aeruginosa (绿脓杆菌), UniProt P11439 173-638)
T1 construct: also called 重组PE抗原; 重组蛋白PE
T1 sequence: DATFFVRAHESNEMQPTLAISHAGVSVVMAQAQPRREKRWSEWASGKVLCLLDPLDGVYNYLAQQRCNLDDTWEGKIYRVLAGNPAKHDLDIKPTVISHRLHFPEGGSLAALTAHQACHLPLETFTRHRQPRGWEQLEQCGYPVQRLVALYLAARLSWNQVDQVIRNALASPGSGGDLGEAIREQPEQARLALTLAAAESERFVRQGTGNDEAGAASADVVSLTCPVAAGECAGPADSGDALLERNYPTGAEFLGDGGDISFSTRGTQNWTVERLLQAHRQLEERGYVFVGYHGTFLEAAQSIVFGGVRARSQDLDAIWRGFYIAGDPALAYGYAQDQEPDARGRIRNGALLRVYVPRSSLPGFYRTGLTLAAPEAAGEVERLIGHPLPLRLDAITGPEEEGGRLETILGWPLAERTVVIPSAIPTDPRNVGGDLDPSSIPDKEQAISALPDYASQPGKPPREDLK
Test: SPR, Biacore T100, 1:1 binding fit

Binder | Kd [nM]
纳米抗体VHH-PE 1 (VHH) VHH: ESGGGLVQAGGSLRLSCAASGRTFSSTGHTFSSYAMGWFRQTPGKEREFVAAISWSGTSTYYADSVKGRFTISRDNAKNTVYLQMNSLKPEDTAVYYCAARFWDYGLGSSDLKSPREYDYWGQGTQ | 12.2
纳米抗体VHH-PE 2 (VHH) ESGGGLVQAGGSLRLSGVASRRTFCNYLDAMGWLSLVTGKERELVAHITGNRGDVMYLDSVKAGSTISRVKTNSTVYLQMNSMKPEDTHVYYWAPKATGFFSPKEEEKYNWWGQGTQ | 4.85
